Experiment [1] has as its target T1, cynomolgus CD40-Fc protein (cynomolgus, UniProt G7PG38 21-193).
T1 construct: not shown: Fc part
Put plainly: BLI (ForteBio), CD40-Fc on AHQ sensor, 100 nM Fab in solution, monovalent, 1:1 model. The method, then: (§1) The antigen-loaded sensor was incubated with 100 nM Fab solution until a plateau was reached, and then the sensor was transferred to the analysis buffer for at least 2 minutes for dissociation rate measurement. Kinetic analysis was performed using a 1:1 binding model.
In general terms: BLI is a label-free optical method that tracks binding on a fibre tip over time.

Experiment [2] deals with T2, human CD40 overexpressed on cells (human, UniProt P25942 21-277).
T2 construct: Cells transfected with human CD40 cDNA; also called CHO-huCD40 cells; CHO-S cells overexpressing human CD40
Put plainly: flow cytometry on CHO-S cells overexpressing human CD40. The method, then: (§2) Specifically, by transfecting the pCHO1.0 vector (Invitrogen) with the human/cynomolgus CD40 cDNA cloned into the MCS and followed by applying pressure selection, CHO-S cells overexpressing human/cynomolgus CD40 were generated. The expanded CD40 overexpressing cells were adjusted to the appropriate cell density and plated on 96-well flow plate. After centrifugation, the cells were incubated with a gradient-diluted sample at 4° C. for 30 minutes. and the cells were then washed twice with PBS, and followed by incubation with a fluorescent secondary antibody diluted to the appropriate concentration, at 4° C. for 30 min. Following two washes with PBS, cells were resuspended in PBS and fluorescent signals were detection on the CytoFlex flow cytometer to calculate the corresponding MFI.
(In general: Flow cytometry measures light scatter and fluorescence of single cells or particles in a stream.)

Experiment [3] deals with T3, cynomolgus CD40 overexpressed on CHO-S cells (cynomolgus, UniProt G7PG38 21-278).
T3 construct: whole, on cells; also called cynomolgus CD40 expressing CHO cells
The experiment in a line: flow cytometry on CHO-S cells overexpressing cynomolgus CD40. The method, then: as §2

The target in experiment [4] is T4, human CD40-Fc protein (human, UniProt P25942 21-193).
T4 construct: also called human CD40-Fc fusion protein; CD40-Fc antigen; not shown: Fc part
Put plainly: BLI (ForteBio), IgG on AHQ sensor, 100 nM CD40-Fc in solution, bivalent, 1:1 model. As to the method:
(§3) The antibody-loaded sensor was further incubated in a high concentration of irrelevant intact antibody solution for 10 minutes to saturate and block the Fc binding sites on the AHQ sensor. The blocked sensor was then incubated with 100 nM CD40-Fc antigen until a plateau was reached, and then the sensor was transferred to the analysis buffer for at least 2 minutes for dissociation rate measurement. Kinetic analysis was performed using a 1:1 binding model.

The target in experiment [5] is T1, cynomolgus CD40-Fc protein. Described as above. As to the method:
as §3

Experiment [6] deals with T4, human CD40-Fc protein. The experiment in a line: BLI (ForteBio), CD40-Fc on AHQ sensor, 100 nM Fab in solution, monovalent, 1:1 model. The method, then: as §1

Substitutions are numbered along the chain they refer to.

T4 sequence (P25942 21-193 limits assumed): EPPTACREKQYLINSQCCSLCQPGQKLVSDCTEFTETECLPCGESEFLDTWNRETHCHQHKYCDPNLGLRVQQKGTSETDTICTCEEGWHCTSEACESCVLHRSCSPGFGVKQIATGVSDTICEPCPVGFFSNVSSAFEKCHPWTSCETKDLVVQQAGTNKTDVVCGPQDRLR
T2 sequence (P25942 21-277 limits assumed): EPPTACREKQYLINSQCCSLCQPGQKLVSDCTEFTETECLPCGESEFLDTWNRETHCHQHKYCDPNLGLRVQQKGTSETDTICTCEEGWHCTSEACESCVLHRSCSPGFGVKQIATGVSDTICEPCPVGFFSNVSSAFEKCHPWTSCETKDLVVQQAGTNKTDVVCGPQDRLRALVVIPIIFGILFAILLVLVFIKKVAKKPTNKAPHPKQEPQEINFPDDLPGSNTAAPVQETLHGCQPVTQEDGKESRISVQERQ

B1: ADI-55136 Fab (Fab, V domains shown)
VH: QVQLVESGGGVVQPGRSLRLSCAASGFTFSSYGMHWVRQAPGKGLEWVAVISYHASSKYYADSVKGRFTISRDNSKNTLYLQMNSLRAEDTAVYYCARDTSRGHDIWGQGTMVTVSS
VL: EIVLTQSPGTLSLSPGERATLSCRASQSVSSSYLAWYQQKPGQAPRLLIYGASSRATGIPDRFSGSGSGTDFTLTISRLEPEDFAVYYCQQYADYPPFTFGGGTKVEIK
As to B1, the Kd in experiment [1] was determined as 78.1 nM.

B2: ADI-55145 (antibody, human IgG1, kappa, V domains shown)
VH: B1 VH with S30E, S31K, H54E, A55G, S56T
VL: EIVLTQSPGTLSLSPGERATLSCQASQSVSYNYLAWYQQKPGQAPRLLIYGASSRNNGIPDRFSGSGSGTDFTLTISRLEPEDFAVYYCQQYSDYPPFTFGGGTKVEIKR
Broadly, the EC50 is the midpoint of the concentration-response curve. Read a low EC50 as an effect from little substance. On to B2, for which the EC50 in experiment [2] was 5.26 nM; in experiment [3], 6.66 nM. Further, the figures for the Kd (with human CD40-Fc protein [4]; in experiment [5]) were 0.169 nM and 0.226 nM, respectively.

B3: ADI-55142 Fab (Fab, V domains shown)
VH: B1 VH with S30E, S31K, H54E, A55G, S56E, S57K
VL: B1 VL with S31Y, T57N, Q90S, Q91D
Consider B3, for which the Kd is 2.74 nM with human CD40-Fc protein [6] and 2.81 nM in experiment [1].

B4: ADI-55140 (antibody, human IgG1, kappa, V domains shown)
VH: B1 VH with S30E, S31K, S52H, H54E, A55G, S57I
VL: B2 VL with Q24R, N32D, S54T, N56A, Q90G, Q91E, S93A
For B4, the EC50 in experiment [2] came to 6.3 nM; in experiment [3] it was 8.53 nM. Also, the Kd with human CD40-Fc protein [4] came out at 0.168 nM; in experiment [5], 0.23 nM.

B5: ADI-55144 (antibody, human IgG1, kappa, V domains shown)
VH: B1 VH with S30E, S31K, H54E, A55G, S56T, S57K
VL: B2 VL with Q24R, N32S, R55L, N56A, N57T
With B5, the Kd came out at 0.11 nM in the experiment with human CD40-Fc protein [4] and 0.19 nM in experiment [5].

B6: ADI-55147 (antibody, human IgG1, kappa, V domains shown)
VH: B1 VH with S30G, H54E, A55G, S56V, S57K
VL: B2 VL with Q24R, N32D, S54A, N56A, S93A
As to B6, the EC50 came to 7.49 nM in experiment [2] and 4.49 nM in experiment [3]. For the same molecule, the Kd was determined as 0.139 nM in the experiment with human CD40-Fc protein [4] and 0.208 nM in experiment [5].

B7: ADI-55147 Fab (Fab, V domains shown)
VH: B1 VH with S30G, H54E, A55G, S56V, S57K
VL: B1 VL with S31Y, S32D, S54A, T57N
notes: also called Fab fragment of ADI-55147
Regarding B7, the Kd came to 8.67 nM with human CD40-Fc protein [6] and 8.87 nM in experiment [1].

B8: ADI-55136 (antibody, human IgG1, kappa, V domains shown)
VH: B1 VH
VL: B2 VL with Q24R, Y31S, N32S, N56A, N57T, S93A
Consider B8, for which the midpoint of the response in experiment [3], the EC50, lay at 4.83 nM. Further, the Kd in experiment [5] came to 0.383 nM.

B9: ADI-55144 Fab (Fab, V domains shown)
VH: B1 VH with S30E, S31K, H54E, A55G, S56T, S57K
VL: B1 VL with S31Y, R55L, A93S
As to B9, the Kd worked out at 2.08 nM in the experiment with human CD40-Fc protein [6] and 2.21 nM in experiment [1].

B10: ADI-55144-2 (antibody, human IgG1, kappa, V domains shown)
VH: B1 VH with S30E, S31K, H54E, A55G, S56T, S57K, D62E
VL: B2 VL with Q24R, N32S, R55L, N56A, N57T
Consider B10, for which the results for the EC50 in experiment [2] and in experiment [3] were 11.5 nM and 15 nM, respectively.

B11: ADI-55145 Fab (Fab, V domains shown)
VH: B1 VH with S30E, S31K, H54E, A55G, S56T
VL: B1 VL with R24Q, S31Y, S32N, A56N, T57N, A93S
On to B11, for which the Kd with human CD40-Fc protein [6] was determined as 5.88 nM; in experiment [1] it was 5.72 nM.

B12: ADI-55142 (antibody, human IgG1, kappa, V domains shown)
VH: B1 VH with S30E, S31K, H54E, A55G, S56E, S57K
VL: B2 VL with Q24R, N32S, N56A, Q90S, Q91D, S93A
As for B12, the EC50 in experiment [2] amounted to 7.69 nM; in experiment [3], 6.32 nM. Further, the Kd turned out to be 0.146 nM with human CD40-Fc protein [4] and 0.193 nM in experiment [5].

B13: ADI-55140 Fab (Fab, V domains shown)
VH: B1 VH with S30E, S31K, S52H, H54E, A55G, S57I
VL: B1 VL with S31Y, S32D, S54T, T57N, Q90G, Q91E
As for B13, the Kd with human CD40-Fc protein [6] is 5.77 nM; in experiment [1] it was 5.42 nM.

B14: ADI-55168 (antibody, human IgG1, kappa, V domains shown)
VH: EVQLVESGGGLVQPGRSLRLSCAASGFTFDTYAMHWVRQAPGKGLEWVSGISWSSGSIHYADSVKGRFTISRDNAKNSLYLQMNSLRAEDTAVYYCAKDPTATTGARGYFDLWGRGTLVTVSS
VL: DIQMTQSPSSVSASVGDRVTITCEASQVISSWLAWYQQKPGKAPKLLIYAASYLQSGVPSRFSGSGSGTDFTLTISSLQPEDFATYYCQQHSSFPPTFGGGTKVEIKR
B14: the EC50 in experiment [2] was 4.73 nM; in experiment [3], 8.85 nM. For the same molecule, the Kd was 0.111 nM with human CD40-Fc protein [4] and 0.122 nM in experiment [5].

B15: ADI-55168 Fab (Fab, V domains shown)
VH: B14 VH
VL: DIQMTQSPSSVSASVGDRVTITCEASQVISSWLAWYQQKPGKAPKLLIYAASYLQSGVPSRFSGSGSGTDFTLTISSLQPEDFATYYCQQHSSFPPTFGGGTKVEIK
On to B15, for which the values for the Kd (in the experiment with human CD40-Fc protein [6]; in experiment [1]) were 0.988 nM and 0.586 nM, respectively.

B16: ADI-55164 Fab (Fab, V domains shown)
VH: B14 VH with T31D, G56D
VL: B15 VL with E24R, Q27K, Q55E
notes: also called Fab fragment of ADI-55164
Turning to B16, the Kd with human CD40-Fc protein [6] was 0.663 nM; in experiment [1], 0.72 nM.

B17: ADI-55164 (antibody, human IgG1, kappa, V domains shown)
VH: B14 VH with T31D, G56D
VL: B14 VL with E24R, Q27K, Q55E
Consider B17, for which the EC50 in experiment [2] stood at 5.47 nM; in experiment [3] it was 8.06 nM. Besides, the Kd with human CD40-Fc protein [4] came to 0.1 nM; in experiment [5], 0.117 nM.

B18: ADI-47720 Fab (Fab, V domains shown)
VH: B14 VH with T31D, H59G
VL: B15 VL with E24R, V28G, Y53S, H91R, S92A
For B18, the Kd with human CD40-Fc protein [6] came out at 152 nM; in experiment [1], 263 nM.

B19: ADI-47741 (antibody, human IgG1, kappa, V domains shown)
VH: QVQLQESGPGLVKPSETLSLTCTVSGGSISSYYWSWIRQPPGKGLEWIGSIYYSGSTNYNPSLKSRVTISVDTSKNQFSLKLSSVTAADTAVYYCARDANYYKWHPYWGQGTLVTVSS
VL: EIVLTQSPGTLSLSPGERATLSCRASQSVSSDYLAWYQQKPGQAPRLLIYGASSRATGIPDRFSGSGSGTDFTLTISRLEPEDFAVYYCQQVLSYPPTFGGGTKVEIKR
Molecule B19 had an EC50 in experiment [3] of 17.9 nM. The same molecule came in with a Kd in experiment [5] of 0.559 nM.

B20: ADI-47741 Fab (Fab, V domains shown)
VH: B19 VH
VL: EIVLTQSPGTLSLSPGERATLSCRASQSVSSDYLAWYQQKPGQAPRLLIYGASSRATGIPDRFSGSGSGTDFTLTISRLEPEDFAVYYCQQVLSYPPTFGGGTKVEIK
Take B20: the Kd in experiment [1] worked out at 71 nM.

Values taken from patent US20260265391A1 (BIOTHEUS, published 2026).
